Measurements reported in US20050032744A1.

Columns and labels:
[1] = molecular target: adenylyl cyclase (AC) in rat dorsal root ganglia (DRG) lysates (rat); experiment: cell-based or functional assay
[2] = molecular target: adenylyl cyclase (AC) in rat spinal cord lysates / membrane preparations (rat); experiment: cell-based or functional assay

Q: “Protein Associated with Myc (PAM), human, full length, purified from HeLa cells (from UniProt O75592 1-4678)” was tested. Which inhibition of Gαs-stimulated AC activity, DRG lysates, 30 nM PAM [1] did it give?
A: Its inhibition of Gαs-stimulated AC activity, DRG lysates, 30 nM PAM is 32%.

Q: And the inhibition of Gαs-stimulated AC activity, spinal cord lysates of animals treated for 1 hour with formalin, 30 nM PAM [2]?
A: The inhibition of Gαs-stimulated AC activity, spinal cord lysates of animals treated for 1 hour with formalin, 30 nM PAM was 25%.

Q: And the inhibition of Gαs-stimulated AC activity, spinal cord lysates of control animals, 30 nM PAM [2]?
A: Its inhibition of Gαs-stimulated AC activity, spinal cord lysates of control animals, 30 nM PAM is 49%.

Q: What about the inhibition of Gαs-stimulated AC activity, spinal cord lysates of rats 96 hours after zymosan injection, 30 nM PAM [2] of the same substance?
A: Its inhibition of Gαs-stimulated AC activity, spinal cord lysates of rats 96 hours after zymosan injection, 30 nM PAM is 70%.
